# Assay: soluble fraction after stress (log2 fold change); higher = more stays soluble; pooled small domains, quantitative proteomics
# Conditions: stress: pH 4
# Method in brief: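 Custom libraries of small protein domains were pooled and exposed to pH 4. High-throughput quantitative proteomics then measured the log2 fold change in the amount of each domain still soluble, with higher values meaning more stayed soluble. This soluble-fraction fold change stands for aggregation propensity.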
row,Sequence,soluble fraction (log2)
1,HMGDTLEIVVIYSNKQKAEEAVNNLKGKFEDLGYNFAIITVDTSKITQLAMESSIQYIEFPKSFYFSD,-1.29
2,HMGDVATVKLDNNGLLNMRKSDARGADIVARIPNGTVVQVLNRETEWTQVRYDGKEGYVMSSFLQFAE,0.0427
3,HMGDVPESLVEKAGHSINAKIISAWGMTETGASTMTRPQDDPERAIYSDGVVLPLMDVRVVNDAGLA,-0.271
4,HMGDWEKALAQFAAHRLANGSTAFLDEMYPIFERILLQAALNKTGGRKIEAAELLGWGRNTLTRKLKELGF,-1.01
5,HMGDYERVPEYKGKLTSDLTMEDSQKFAFRFIWQNSDEDEGKIIDQDPPAGKSVAKGSEIVLYVSNG,-0.0695
6,HMGEAAIYRINILINNLNVRSGPGTLYPRLRRADFPGEYDIFEEKNGFGRISNTKSEWVSLNTQYVQRLT,0.158
7,HMGEAIPVPDLKHKALTDAEHLVHELGLEIQVVDTGYVKSLPADYILGQSLAPGEKVKSGHIIYVTINSP,0.0193
8,HMGEGTAVGKALKFLAAQGKKFAPELLDMAGSLTGVEALSKLGDAIKGDPELSELDKRILLAELETDAV,-0.744
9,HMGEIHALIPGLVSRLFVKPGDRVENGQGLLILEAMKMENEIDSPISGVVGKIYIKAGDKVEKGELIMEIN,0.115
10,HMGEIVVPDLIGKSLTEATRILSDSTLTVGKVNYQISSTLLPNTVLDQYPAPGNKLNSGNTVDLFITKE,-0.0586
11,HMGEKTLSEKVYDRLKELIMDGELERGTKITETSIAKMFDVSPTPVREAFRKLASDGLIEVASWKGVIVKG,0.338
12,HMGELYGTDQYKDGDAQDTNIGKLLEVNIDGKWQVATTGTSRFEFAGVMDDNGHKLIMISVLPEAKTV,-0.647
13,HMGEPLSPDARALTNVLRHYRGWAEPGELARKSGLGSRERVLTAAQSLVNAGLADIERGMVRPTAALMEVQ,-0.0354
14,HMGEPVASSREVAKRFGKEHKHVLAAIRQILVAENSATKFFHETAFEYRGQRFPEYLMNRDGFALLAMGF,-1.35
15,HMGEPVNSPMPGTILRVEVTQGAAVKEGQLLVVLEAMKMENEILAPKDGTVAQVVVQKGSHVETGSPLIVL,-0.429
16,HMGEQLALLERARTLLEDETLETEVQKELEMLLEDIEAARAEANATQLEDLFEELADLLFDLE,-0.193
17,HMGEQYYVLIDNKQNGPHNINAIQKMIDQNIVNRQTLIWKKGMTDWGNIMDDKDLKEMVNKIP,0.0559
18,HMGERMELTLDNPREAIPVLDAMGFANYQVVDKEHIHIFERLNESALVNMELAKAGIPVKGISITSE,-0.523
19,HMGESEWIVKWRGEKRDEERLQESELVRDDPEHRISVVRPRDDVDASAWLNRWRKSRYVQYIQPNHRVTIS,0.0349
20,HMGESFPYVAYATDSVRLRARPSSSATILTVIRKGDAVLITGADGSYKIVEYEGRKGYVVSAFLSSQET,-0.00452
21,HMGESVQVPSYVGMGFREAARKARARDFGVAVSDSIYVPGKPPGEIIAQDPKAESRVKEGRTIYFTVAK,-0.0612
22,HMGETAFRYALPLDQGEALKRSHVIRQSISPDDALATRVTVLEDVLDQTLRQPVQAGEVLLEDHFTR,-0.682
23,HMGETRWTYDDFGNILTEKAAPYSATEFLGKTYTYDTDNRYLKTVTDALGRTTTTLSYDKYGNPLSVMD,-0.357

row,Sequence,soluble fraction (log2)
1,HMGETWYEILEISSDATTEEIRQAYFEQARQYHPDTNPGELAREWFYQVQEAYETLSDPDRRRQYDESIKG,-2.16
2,HMGEVEVPDLVGIEAIQAKTLLFNSDFLIKEFYDYDPTQPIGVVIRQAPEAGTTQTIGDSVTITINRA,-0.0721
3,HMGEVISRSYPLLKTKAKPAEVSEALQKLIKAPATVTFDEKNEVFHINATRLQHTWAEGYFKGLHGK,-0.172
4,HMGEVPPGWSVEALAAIERDLAHHVGPVARVLVQRGARLHTTTDDLRSALANAITDDLARRRFMQP,-0.635
5,HMGFEALRSRHRITAREMEVLQHMLAGRSNAEIGHTLGLSERTVKTHITSIFNKLGVDSRAQLGYMLK,0.366
6,HMGFLTKTQRLEILLHLKDEPYYNVEKLKELIKNRYGIVYQSSQSYYDLLKEAGLSWHQTQA,0.00834
7,HMGFVTVTEVDTTADLKLARVYVSVLGPEEQWAKSFTALESARGFVWNWLRKHLDLRVTPQLAF,-1.74
8,HMGGASVTDQQIRDFVSAHTDDPMAIYKAAVANGISSARLAQVTGISIADIEAFVRKNNLPSF,-0.206
9,HMGGEEINMINLVGLSQSEAENQLAKLKLKIGQVTAEYSDKPSGTVLKQSISANNKVKKGADIDIVVSKG,0.207
10,HMGGELLSLRRIGTLTGISYPTLLRYVARYGEQIPQTGTGRSRRFPPAAVPVFQELRATRGRAPRATA,0.0768
11,HMGGEPKALLFAGVETREMAEITQRLEAADIPYEIREDGGSIYVARSEVFNARMMLSADGLPS,0.233
12,HMGGFNATTLQNIEELRRSLSDADQFGRHEVIETIGGSDSRAGKLLKKMLEAGIIEQVKGHGKGRYRFKRT,0.0979
13,HMGGGEYTVAKGDTLWKIAAQTLGSPTRYAEIYNLNKDVIEETARGRGKRDSSNGHWLFPGTALKIPGT,-0.234
14,HMGGGFLVPSLVGKSLEEARSLSELRGFKLEVGDYVISSEYPAGRVTRQNPANGAKGQEGDVIKVEVSS,0.153
15,HMGGGRELGLDPETGKKISVRLGKFGPFVQLGESGEEDKPVFANLGKNQSIATLSLEEAIALLARPK,0.189
16,HMGGGVSSSLAGNVFKVLLPAGSVVEQGQAVIVLEAMKMETEVNAPKSGSVSSVFVNEGDTVEVGDLLFAI,-0.162
17,HMGGKWKAIIIYHLKNGPKRFGELRRALISSTETVLSNQLKQLEQDGLVSRQVFGTKPPLKTVYSLTDFG,-0.906
18,HMGGKWKLRILLALENSAQDALRYGEIKNIVSGITDMMLSQSLRELTADGLIERRQYQEIPPKVEYRLS,-0.868
19,HMGGKWKPIILYYININSVARYSELKRFIPSINERMLTRQLRELEEDNLIERKVYPIVPPKVEYRLTEYGK,0.0222
20,HMGGKWSMPIIYILSKGKMRFKELERSVEGINTRMLVKELKNMEANGIVTREVFPTVPPTVEYALT,-0.178
21,HMGGKYKGVIIGHLIDKTLRYNELQKLISHATPKMLIQQLKELEADGIIQRKLYPVVPPKTEYSLTERG,-0.0376
22,HMGGLAEGTKITLQNTVNVRASMGEDAEKIGTAYAGEKVTVIMSYAEGWTKVTWNDKTGYIKTSLL,-1.04
23,HMGGLAHPASGEEMEHLFAHLEGELLKSGFLFPPDKAAGMMRNIRAMLTRADFTDQEVRTLRGMIVALSRG,-0.794

row,Sequence,soluble fraction (log2)
1,HMGGNDALEIAKSNPQVIEVLGEPVTKDGMGSYSVNYKNGHKTSEATIPIEGPNGTATLHVKTSGSDDAL,0.22
2,HMGGNKILTWKTDAATTRNQVPINERKEGLEISYKNEERNWVAEKYVGTSFSDDKWGVDYNWNQD,-0.559
3,HMGGPAGPDFTYTGDDLTRIDYDDGSYKVFTYDAGKLSQIDFTSGGTTTRKTFVYSGDTLIRVDQTI,-1.43
4,HMGGPEPIPAQIREGDTVYVTKFKQLGLVLKISEDTAEVQIGPLRATVAKTELSKVDATATEHR,-0.0107
5,HMGGQFVKVEVIAQIFGVTVRRVQQLTQEGVVKTTEIPGEGRRYELVPTIKTYIQYLSDKAY,0.0375
6,HMGGTFLVRILDPALNIRAQPSLTARINGVIRDKSVYTIVATSFEPKTQITWGKLKSGAGWISIGSKYVKK,0.0406
7,HMGGVTVQNRETHVNSTVNVRSEQTTESERVALAYQGDAITQIESYENGWSKVEYKGLSGYVMTEYL,-0.819
8,HMGGYLIGDVAQMVGLSRDALRFYEKKGIIRADKKENGYRYYSEDDIYRLMYILYHRKMNTSLEEIGGLMS,-0.478
9,HMGHKKLTIELQDEIIVLPKELEKYNLTVSDDKTSLIYTYKSRGEKTGITDLLRDIKDAGLRLKDLITEQ,-0.0229
10,HMGHTVHAVPEAADRQRLDVFVGNLHPTISRAYIQKLSKEDQILVNGKPEKAGFKLRTGHSVSVPDMSE,0.177
11,HMGIAEAKRVIVRTLHDVLGPEADFLTEKIDVAQTAAELRVHAEKYRDMLVDMGKPKKSAAFWEAFEAALP,-0.65
12,HMGIAKLLTEQEYKIALLAAERRTNAMIAEEMNLTENTVKTHLKHIFDKVGIAGNAKNKRHLLADMMNSER,0.0405
13,HMGIDISAFSETALQVLRLQAAGYTAKEISEKLHITPRTVKYHASQNYRKLDAKNLVDAVQIAQALHI,-0.171
14,HMGIEQVELASRVRDAVDSLPHHLREIILLSYFQKMSYNQIAETLQVPLGTVKSRLHAAVASFAQAWTQSS,-0.658
15,HMGIFAQTTKWRDIYTVKKKDTIFGIANKYGLSLPELMEANPEMKQEGYMLQKGTTLFIPFASD,-0.0354
16,HMGIGSTLTDGVRVYASDDEIVVNAPAESDVRIFNAGGAQLYAGRVADVRVAVAKGLYVVTVDGRSTKITV,0.217
17,HMGIILDWELFEQFADKLKRKKVDFVIEPYLRFEGRRGEQSTLFIKDPSGNYLEFKAFKNIDMLFEK,-1.38
18,HMGIPIEAYHESLHRHYIDLWELLDTGKETLIDAEGNEVDKIHLLNAIRFNVNGMLHELLKE,-1.48
19,HMGIQYVASGHYARMETDAQGVSRLFPPESGAPDESDRLAALSPEVLTRLILPLGDFAPEDVEEMAVD,-0.294
20,HMGIRAFDPEAFDERLKEFFSMIAPYKKLDTRSLQPHFPHHAKEVAERIRQLAEAGKIKVDGFYISEL,-0.0943
21,HMGIRDIHITVNGESLKLSKKQNYIFVDIFDFYPFDLSILGGSKLITTINGEQAEFTSPLKDGDVVELYWK,-0.977
22,HMGISNEETFLLEKMSSGRRYSRKELDNLMGFEKTKTIRLLGSLINKGLVVAEGVNRARRYIR,-0.00925

# Source: the domain aggregation screens of Martell et al. (2025)
